For experiment [1], the target named is full length pHrodo-labelled monomeric (P301S) 2N4R tau (human, UniProt P10636 1-758, labelled with pHrodo Red Maleimide). Kind of experiment: cell-based or functional assay.
For experiment [2], the target named is full length pHrodo-labelled aggregated (P301S) 2N4R tau (human, UniProt P10636 1-758, labelled with pHrodo Red Maleimide). Kind of experiment: cell-based or functional assay.
Experiment [3] concerns the target T1, full length recombinant human 2N4R tau (amino acids 1-441) (human, UniProt P10636 1-758).
T1 construct: Bought (rPeptide); recombinant, non-phosphorylated; also called recombinant tau
Kind of experiment: SPR Biacore SCK, IgG on Protein A, tau analyte. Here is the method:
23.5 Assessment of antibody binding to tau (Biacore SCK analysis): Binding of anti-tau hIgG1 to full length recombinant 2N4R tau (Rpeptide; SEQ ID NO: 2) was assessed using the Biacore T200 (GE Healthcare, Chicago, Ill., USA) running Biacore T200 Evaluation Software V2.0.1. hIgG1 were immobilised on a Protein A capture sensor chip in running buffer (HBS-EP+ buffer containing 1 mg/mL BSA) at 25° C. captured to ˜50 RU at 10 μL/min. For single-cycle kinetics experiments, recombinant 2N4R tau was flowed at concentrations ranging from 5 nM to 40 nM (2-fold dilutions) with an association time of 150 s and a dissociation time of 200 s. Curves were compared to a reference cell that was mock immobilized (no antibody present).
Data were analysed using Langmuir (1:1) binding analysis, describing a 1:1 interaction at the surface: […]
(In general: In SPR one partner is held on a chip, and binding of the other changes the refractive index at the surface.)

Experiment [4] addresses T1, full length recombinant human 2N4R tau …. Kind of experiment: SPR Biacore MCK, purified IgG on Protein A, tau analyte. Here is the method:
Biacore multi-cycle kinetics (MCK) analyses for antibody binding to recombinant (non-phosphorylated) 2N4R tau are summarised in FIG. 23 and Table 8. […] Slight variations in RMAX are considered likely to be due to differences in ligand capture and not reflective of significant variation in antibody binding characteristics.
24.2 Assessment of antibody binding to tau (Biacore MCK analysis): Binding of anti-tau hIgG1 to full length recombinant 2N4R tau (Rpeptide; SEQ ID NO: 2) was assessed using the Biacore T200 (GE Healthcare, Chicago, Ill., USA) running Biacore T200 Evaluation Software V2.0.1. hIgG1 were immobilised on a Protein A capture sensor chip in running buffer (HBS-EP+ buffer containing 1 mg/mL BSA) at 25° C. captured to ˜50 RU at 10 μL/min. […] Curves were compared to a reference cell that was mock immobilized (no antibody present).

Experiment [5] addresses T2, Bovine serum albumin (bovine, UniProt P02769 25-607).
T2 construct: Negative control antigen in ELISA; also called BSA
Nature of the experiment: ELISA on 1% BSA, HEK supernatant, anti-human IgG-HRP, n=1. Here is the method: (§1) Antigen was removed from wells and the plates were then blocked for 1 hour at RT with 5% dried milk in 1×TBS. Blocking solution was removed, HEK293 cell supernatant (1:100 in 1% BSA/1×TBS) was added to relevant wells, and plates were incubated for 1 hour at RT with gentle shaking. Plates were then washed four times with TBS/0.1% Tween (TBST). Goat-anti-human IgG-HRP antibody (ThermoFisher Scientific, Waltham, Mass. USA), diluted 1:2000 in 5% milk/TBS, was added to each well and plates were incubated for 1 hour at RT with gentle shaking before being washed four times with TBST. 3,3′,5,5′-tetramethylbenzidine (TMB) ELISA solution was added to each well and plates were incubated for 15 mins at RT. An equal volume of 1 M sulfuric acid was added to each well and OD was measured at 450 nm.

Experiment [6] deals with T2, Bovine serum albumin. Nature of the experiment: phage ELISA. Here is the method:
10.1 Phage ELISA: Supernatants prepared from bacterial cultures infected with phage displaying scFv were tested for binding to full length recombinant 2N4R tau (100 ng/well), target peptide (SEQ ID NO: 13) conjugated to BSA or transferrin (1 μg/well) or BSA (1% in TBS) using standard methods. Antigen was coated onto ELISA plates, then removed, and plates were blocked for 1 h with 5% dried milk in TBS. Samples were diluted 1:25 in 1% BSA/TBS then added to the ELISA plate for 1 h at room temperature (RT). Plates were then washed ×4 with TBS/0.1% Tween (TBST). Alpha-M13-HRP antibody (Abcam, Cambridge, UK) was added (1:5000 dilution in 5% milk/TBS) and incubated for 1 h at RT before washing ×4. TMB ELISA solution was added to each well for 10 min at RT, followed by 1 M sulphuric acid. OD was then measured at 450 nm.
On the technique in general: ELISA stands for enzyme-linked immunosorbent assay.

In experiment [7] the target is T1, full length recombinant human 2N4R tau …. Nature of the experiment: ELISA, HEK293F supernatant on coated tau. Here is the method:
as §1, with “removed. HEK293F” for “removed, HEK293”, “(10 μg/mL, to 0.0001 μg/mL” for “(1:100”, “Anti-rabbit” for “Goat-anti-human”, “(Sigma. St Louis, Mo.,” for “(ThermoFisher Scientific, Waltham, Mass.”, “1:5000” for “1:2000”

Experiment [8] has as its target T2, Bovine serum albumin. Kind of experiment: ELISA on 1% BSA, HEK293F supernatant, anti-rabbit IgG-HRP, n=1. Here is the method: FIG. 9. A panel of anti-tau IgG bind to linear immunogen peptide and full length recombinant 2N4R tau in ELISA format. […] Binding of anti-tau IgG was detected using an HRP-conjugated anti-rabbit secondary antibody and data shown are from a representative experiment (n=1).
as §1, with “removed. HEK293F” for “removed, HEK293”, “(10 μg/mL, to 0.0001 μg/mL” for “(1:100”, “Anti-rabbit” for “Goat-anti-human”, “(Sigma. St Louis, Mo.,” for “(ThermoFisher Scientific, Waltham, Mass.”, “1:5000” for “1:2000”

The values that follow come from US20220265819A1 (GEN2 NEUROSCIENCE, published 2022).

In general, Kd refers to the constant that tells how readily two partners part at equilibrium. By koff is commonly meant a measure of how fast the partners let go of each other. For orientation: kon means the rate constant with which the complex forms.

T1 sequence (P10636 other isoform, or with tags, fused parts or gaps limits assumed): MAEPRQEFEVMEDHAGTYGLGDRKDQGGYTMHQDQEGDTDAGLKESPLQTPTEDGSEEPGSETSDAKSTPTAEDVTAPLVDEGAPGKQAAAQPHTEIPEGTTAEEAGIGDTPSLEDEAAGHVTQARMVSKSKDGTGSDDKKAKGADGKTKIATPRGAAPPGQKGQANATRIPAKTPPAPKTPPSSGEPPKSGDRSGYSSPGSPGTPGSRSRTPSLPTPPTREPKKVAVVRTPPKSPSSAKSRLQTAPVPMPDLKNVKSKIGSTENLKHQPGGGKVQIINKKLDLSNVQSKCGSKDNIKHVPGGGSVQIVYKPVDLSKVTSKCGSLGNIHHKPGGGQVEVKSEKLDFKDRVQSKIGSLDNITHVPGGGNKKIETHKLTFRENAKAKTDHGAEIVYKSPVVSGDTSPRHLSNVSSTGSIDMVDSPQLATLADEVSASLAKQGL
T2 sequence (P02769 25-607 limits assumed): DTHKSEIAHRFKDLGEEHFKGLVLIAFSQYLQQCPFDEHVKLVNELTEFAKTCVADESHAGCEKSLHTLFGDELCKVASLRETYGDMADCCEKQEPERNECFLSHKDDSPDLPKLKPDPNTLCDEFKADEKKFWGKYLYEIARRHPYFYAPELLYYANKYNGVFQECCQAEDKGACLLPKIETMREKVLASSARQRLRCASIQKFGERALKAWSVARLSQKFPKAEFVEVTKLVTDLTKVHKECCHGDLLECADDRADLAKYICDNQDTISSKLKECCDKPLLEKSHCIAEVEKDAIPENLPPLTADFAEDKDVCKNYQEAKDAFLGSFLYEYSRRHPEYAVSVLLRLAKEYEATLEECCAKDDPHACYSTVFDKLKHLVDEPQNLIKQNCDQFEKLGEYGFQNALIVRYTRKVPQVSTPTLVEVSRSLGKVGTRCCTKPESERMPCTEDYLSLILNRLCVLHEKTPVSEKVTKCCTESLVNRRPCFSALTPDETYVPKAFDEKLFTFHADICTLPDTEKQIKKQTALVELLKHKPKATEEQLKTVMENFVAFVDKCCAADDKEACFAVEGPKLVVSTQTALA
full length pHrodo-labelled aggregated (P301S) 2N4R tau, sequence (P10636 other isoform, or with tags, fused parts or gaps P301S P301S): as the sequence (P10636 other isoform, or with tags, fused parts or gaps limits assumed) above, with P301S counted along it
full length pHrodo-labelled monomeric (P301S) 2N4R tau, sequence (P10636 other isoform, or with tags, fused parts or gaps P301S P301S): as the sequence (P10636 other isoform, or with tags, fused parts or gaps limits assumed) above, with P301S counted along it

B1: Clone 24 (VH3Vκ4), humanised variant of clone #28, human IgG1 (antibody, V domains shown)
VH: QVQLQESGPGLVKPSETLSLTCTVSGFSLNNYDMSWVRQAPGKGLEWIGTVSTTYRRYYASWAKGRFTISKTSSTTVDLQMTSLTAEDTATYFCAASGIWGRGTLVTVSS
VL: DIQMTQSPSTLSASVGDRVTITCQSSQRVYSNYLAWYQQKPGQPPKRLIFLASTLESGVPSRFSGSGSGTEFTLTISSLQPDDFATYYCAGTYTGSIWAFGGGTKVEIK
notes: also called VH3VK4; VH3Vk4
For B1, in experiment [1], the “inhibition of uptake of monomeric tau into human iPSC-derived astrocytes” value turned out to be 31.5 % inhibition and the “inhibition of uptake of monomeric tau into human iPSC-derived neurons” value was 63.3 % inhibition. In experiment [2], the “increase of uptake of aggregated tau into human iPSC-derived microglia” value came to 267 % increase, the “inhibition of uptake of aggregated tau into human iPSC-derived astrocytes” value turned out to be 30.8 % inhibition and the “inhibition of uptake of aggregated tau into human iPSC-derived neurons” value amounted to 61.4 % inhibition. Also, in experiment [3], the Kd came to 21.2 nM, the “Relative KD” value came out at 0.47 fold vs VH0VK0, the dissociation rate constant (koff) stood at 0.00146 s⁻¹ and the on-rate (kon) was 68900 M⁻¹ s⁻¹. In addition, in experiment [4], the equilibrium dissociation constant (Kd) amounted to 17.1 nM, the “Relative KD” value came out at 0.69 fold vs VH0VK0, the off-rate (koff) is 0.0013 s⁻¹ and the kon stood at 76100 M⁻¹ s⁻¹. Moreover, in the experiment with Bovine serum albumin [5], the binding result is listed as “no binding (tested: supernatant 1:100)”.

B2: Clone 13 human scFv (phage displayed) (scFv, V domains shown)
VH: ESGGGVVKPGGSLRLACEASGFTFNKYAMSWVRQAPGKGLEWVSGNSGSGNSTYYADSVKGRFTISRDNSKNILYLDMNNLRAEDTALYYCAKTRGAGRRKPYGMDVWGHGTTVTVSS
VL: VMTQSPSTLSLSPGERATLSCRASQSVANNYLAWYQHKPGQAPRVLIYGASSRATGIPDRFSGSGSGTDFTLTISRLEPEDFAVYYCQQYGSSPRTFGGGTKLEIK
notes: also called rx9; D12
For the molecule B2, the binding result with Bovine serum albumin [6] is on record as “no binding (tested: 1:25 phage supernatant)”.

B3: Clone 6 rabbit monoclonal IgG (antibody, V domains shown)
VH: QSVEESGGRLVTPGTPLTLTCTVSGFSLSSYDMSWVRQAPGKGLEWIGTIGRYYNTYYATWAKGRFTISKTSSTTVDLKMTSLTTEDTATYFCASSGIWGPGTLVTVSL
VL: AQVLTQTASPVSAAVGGTVTINCQSSQTVYNNNYLSWYQQKPGQPPKRLIYLASTLESGVPSRFSGSGSGTQFTLTISGVVCDDAATYYCAGTYSGSIWAFGGGTEVVVKG
notes: Rabbit IgG expressed in HEK293F; also called P2-C11; A4
As for B3, in experiment [7], the “OD (ELISA)” value was 0.3 OD. The binding result with Bovine serum albumin [8] was “no binding (tested: supernatant 1:50)”.

B4: Clone 5 rabbit monoclonal IgG (antibody, V domains shown)
VH: QSLEESGGRLVAPGTPLTLTCTVSGFSLSSYDMSWVRQAPGRGLEWIGTISSSYRTYYASWAKGRFTISKTSSTTVDLKMTSLTTEDTATYFCASSGIWGPGTLVTVSL
VL: AQVLTQTASPVSAAVGGTVTINCQSSQRVYNNYLAWYQQKPGQPPKRLIYLASTLESGVPSRFSGSGSGTQFTLTISGVVCDDAATYYCAGTYSGSIWAFGGGTEVVVKG
notes: Rabbit IgG expressed in HEK293F; also called P1-B2; A1
B4: the “OD (ELISA)” value in experiment [7] stood at 0.3 OD. The binding result with Bovine serum albumin [8] is recorded as “no binding (tested: supernatant 1:50)”.

B5: Clone 7 rabbit monoclonal IgG (antibody, V domains shown)
VH: QSVEESGGRLVTPGTPLTLTCTVSGFSLSSYDMSWVRQAPGKGLEWIGTIGRYYNTYYATWAKGRFTISKTSSTTVDLKMTSLTTEDTATYFCASSGIWGPGTLVTVSL
VL: AQVLTQTASPVSAAVGGTVTINCQSSQTVYNNNYLSWYQQKPGQPPKRLIYLASTLESGVPSRFSGSGSGTQFTLTISGVVCDDAATYYCAGTYSGSIWAFGGGTEVVVKG
notes: Rabbit IgG expressed in HEK293F; also called P1-D10; D2
B5: the “OD (ELISA)” value in experiment [7] was found to be 0.3 OD. Besides, the binding result with Bovine serum albumin [8] is “no binding (tested: supernatant 1:50)”.

B6: Clone 4 rabbit monoclonal IgG (antibody, V domains shown)
VH: QSVEESGGRLVTPGTPLTLTCTVSGFSLSSYDMSWVRQAPGKGLEWIGTIGRYYNTYYATWAKGRFTISKTSSTTVDLKMTSLTTEDTATYFCASSGIWGPGTLVTVSL
VL: AQVLTQTASPVSAAVGGTVTINCQSSQTVYNNNYLSWYQQKPGQPPKRLIYLASTLESGVPSRFSGSGSGTQFTLTISGVVCDDAATYYCAGTYSGSIWAFGGGTEVVVKG
notes: Rabbit IgG expressed in HEK293F; also called P2-E5; B3
Regarding B6, the “OD (ELISA)” value in experiment [7] was 0.3 OD. Besides, in the experiment with Bovine serum albumin [8], the binding result is recorded as “no binding (tested: supernatant 1:50)”.

B7: Clone 3 rabbit monoclonal IgG (antibody, V domains shown)
VH: QSVEESGGRLVTPGTPLTLTCTASGFSLSRYDMSWVRQAPGKGLEWIGTISGSYNTYYMSWAKGRFTISKTSSTTVDLKMTSLTTEDTATYFCASSGIWGPGTLVTVSL
VL: AQVLTQTASPVSAAVGGTVTINCQSSQRVYSNYLSWYQQKPGQPPRRLIWLASTLESGVPSRFSGSGSGTQFTLTISGVVCDDAATYYCAGTYSGSIWAFGGGTEVVVKG
notes: Rabbit IgG expressed in HEK293F; also called P2-B12; D4
Take B7: in experiment [7], the “OD (ELISA)” value was determined as 0.3 OD. Further, the binding result in the experiment with Bovine serum albumin [8] is “no binding (tested: supernatant 1:50)”.

B8: Clone 8 rabbit monoclonal IgG (antibody, V domains shown)
VH: QSLEESGGRLVAPGTPLTLTCTVSGFSLSSYDMSWVRQAPGRGLEWIGTISSSYRTYYASWAKGRFTISKTSSTTVDLKMTSLTTEDTATYFCASSGIWGPGTLVTVSL
VL: AQVLTQTASPVSAAVGGTVTINCQSSQRVYNNYLAWYQQKPGQPPKRLIYLASTLESGVPSRFSGSGSGTQFTLTISGVVCDDAATYYCAGTYSGSIWAFGGGTEVVVKG
notes: Rabbit IgG expressed in HEK293F; also called P2-F3; H2
With B8, the “OD (ELISA)” value in experiment [7] was found to be 0.3 OD. The binding result in the experiment with Bovine serum albumin [8] is “no binding (tested: supernatant 1:50)”.
